Ends that are not written are not given here. Me3 = trimethyllysine (Kme3)
Columns and labels:
[1] = biological target: SGF29 tandem tudor domain (for ITC); assay: ITC; 350–600 μM H3K4me3 or H3C4me3 peptide titrated to 25–40 μM protein (JMJD2A–H3C4me3: 3 mM peptide to 200 μM JMJD2A); 19 injections; Microcal Auto-iTC200; one set of sites model; 5–7 repeats
[2] = biological target: T1, JMJD2A tudor domains; assay: as above
T1 sequence (O75164 whole entry, species assumed, looked up): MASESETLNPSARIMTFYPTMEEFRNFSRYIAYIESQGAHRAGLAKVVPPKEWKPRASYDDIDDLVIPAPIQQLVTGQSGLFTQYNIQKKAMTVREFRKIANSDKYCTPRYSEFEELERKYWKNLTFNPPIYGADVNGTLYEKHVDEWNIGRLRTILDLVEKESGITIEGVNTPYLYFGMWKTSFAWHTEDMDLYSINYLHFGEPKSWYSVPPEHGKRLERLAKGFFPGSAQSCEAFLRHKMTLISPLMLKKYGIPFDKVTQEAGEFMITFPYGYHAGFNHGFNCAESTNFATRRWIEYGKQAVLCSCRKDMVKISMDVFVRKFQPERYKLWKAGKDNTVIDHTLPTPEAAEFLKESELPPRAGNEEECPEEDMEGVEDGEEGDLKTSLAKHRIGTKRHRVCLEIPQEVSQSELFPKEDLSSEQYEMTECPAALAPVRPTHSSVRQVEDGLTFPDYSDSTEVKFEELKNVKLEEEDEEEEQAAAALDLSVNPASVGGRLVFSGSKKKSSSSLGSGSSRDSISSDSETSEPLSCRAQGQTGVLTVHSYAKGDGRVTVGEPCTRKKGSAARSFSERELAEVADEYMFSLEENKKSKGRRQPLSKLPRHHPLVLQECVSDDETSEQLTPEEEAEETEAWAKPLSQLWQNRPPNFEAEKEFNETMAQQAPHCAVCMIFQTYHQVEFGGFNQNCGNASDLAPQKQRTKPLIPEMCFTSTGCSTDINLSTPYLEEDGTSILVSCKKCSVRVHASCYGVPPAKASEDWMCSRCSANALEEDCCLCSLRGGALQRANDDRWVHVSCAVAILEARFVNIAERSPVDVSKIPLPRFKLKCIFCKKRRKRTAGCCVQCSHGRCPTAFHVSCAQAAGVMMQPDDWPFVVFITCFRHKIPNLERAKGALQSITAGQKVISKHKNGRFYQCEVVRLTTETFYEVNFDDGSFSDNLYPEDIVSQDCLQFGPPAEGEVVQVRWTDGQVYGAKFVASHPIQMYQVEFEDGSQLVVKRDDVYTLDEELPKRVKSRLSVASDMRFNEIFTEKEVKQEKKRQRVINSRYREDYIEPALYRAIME

[3] = biological target: JARID1A PHD3 domain (for ITC); assay: as above
[4] = biological target: JARID1A PHD3 domain (for ITC); assay: ITC; H3G4 (5 mM) titrated to JARID1A (330 μM), H3G4 (3 mM) titrated to TAF3 (200 μM); 19 injections; Microcal Auto-iTC200; one set of sites model

Sequence of SGF29 tandem tudor domain (for ITC) (Q96ES7 whole entry, the tested form may be a part): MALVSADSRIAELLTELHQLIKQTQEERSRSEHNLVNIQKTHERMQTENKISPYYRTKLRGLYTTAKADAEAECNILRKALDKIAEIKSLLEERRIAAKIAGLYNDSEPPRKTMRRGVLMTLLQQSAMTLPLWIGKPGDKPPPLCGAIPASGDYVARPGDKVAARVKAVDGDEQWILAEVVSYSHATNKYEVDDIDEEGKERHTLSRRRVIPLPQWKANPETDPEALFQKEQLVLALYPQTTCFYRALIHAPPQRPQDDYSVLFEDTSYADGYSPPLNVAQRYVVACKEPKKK

B1: 10-mer H3K4me3 histone peptide (peptide)
peptide: ARTK(Me3)QTARKS-OH
- Kd [1]: 1700 nM
- dH [1]: -7.7 kcal/mol
- Kd [2]: 940 nM
- dH [2]: -13.1 kcal/mol
- Kd [3]: 94 nM
- dH [3]: -11 kcal/mol

B2: 10-mer H3G4 histone peptide (peptide)
peptide: ARTGQTARKS-OH
- Kd [4]: 88000 nM
- dH [4]: -2.1 kcal/mol

— publication PMC4673829, “Chemical basis for the recognition of trimethyllysine by epigenetic reader proteins” (Nature Communications, 2015)
